Laboratory results taken from PMC3813556, “Probing the Dynamic Process of Encapsulation in Escherichia coli GroEL” (PLoS ONE, 2013).

B1: GroES (natural protein, E. coli, UniProt P0A6F9 1-97, looked up)
chain: MNIRPLHDRVIVKRKEVETKSAGGIVLTGSAAAKSTRGEVLAVGNGRILENGEVKPLDVKVGDIVIFNDGYGVKSEKIDNEEVLIMSESDILAIVEA
notes: GroES, co-chaperonin of the E. coli chaperonin GroE; also called wild type GroES; co-chaperonin GroES

Experiments:
GroEL SR-1 RW (E. coli) = GroEL SR-1 RW (E. coli) (UniProt P0A6F5); assay: FRET or BRET; stopped-flow intermolecular FRET from the apical domain tryptophan of the GroEL mutant to prebound acid-unfolded AEDANS-GroELwt (equimolar); decrease of FRET after addition of ATP and GroES
GroEL R231W = target: T1, GroEL R231W (E. coli, UniProt P0A6F5 1-548, R231W); assay: stopped-flow tryptophan fluorescence; GroEL with prebound Gdn-HCl-unfolded MDH (5 min pre-incubation at 25°C); 0.625 µM GroEL oligomer; 1 mM ATP without or with equimolar GroES; conditions: both partners purified
T1 construct: GroEL, E. coli, with a unique tryptophan in the apical domain; Double ring 14-mer; copies: 14

Molecule	k of PhaseFRET2 (rate of release of the bound unfolded protein) (GroEL SR-1 RW (E. coli)) [s⁻¹]	k of PhaseFRET (rate of release of the bound unfolded protein) (GroEL SR-1 RW (E. coli)) [s⁻¹]	binding result (GroEL R231W)
AEDANS-labelled, acid-unfolded wild type GroEL (from UniProt P0A6F5 1-548) (natural protein)	0.21	4.1	–
B1	–	–	binds
